The values that follow come from US20240026032A1 (Alexion, published 2024).

The target in test [1] is T1, Programmed Death 1 (PD-1) Fc chimera (R&D Systems, Catalog # 1086-PD-050) (human, UniProt Q15116 25-167).
T1 construct: Bought reagent; not shown: Fc part of the bought chimera (captured by anti-human Fc tips)
Kind of test: BLI (Octet Red), TPP-986 loaded on anti-human IgG Fc tips, DLAT 10 µg/mL bound first, then PD-1 Fc 12.5 µg/mL. On the procedure:
(§1) Antibodies and antibody fusions were diluted to 16 μg/mL in PBS and loaded onto anti-human IgG Fc tips (ForteBio, Catalog # 18-5064). Human DLAT recombinant protein (ProSpec, Catalog # ENZ-082) was diluted into PBS to 10 μg/mL. […] Finally, a dissociation step in PBS was performed to determine dissociation from the bound antibodies.

In test [2] the target is T1, Programmed Death 1 (PD-1) Fc chimera …. Kind of test: BLI (Octet), PD-1 Fc captured on anti-human Fc tips, TPP-994 at 10 µg/mL in PBS as analyte. The procedure: (§2) Final dissociation in PBS was performed in the last step on the Bio-Layer Interferometry (BLI) data.
The target is the same in test [3]. Description: BLI (Octet), PD-1 Fc captured on anti-human Fc tips, TPP-995 at 10 µg/mL in PBS as analyte. On the procedure: as §2
Test [4] deals with T2, Human DLAT recombinant protein (ProSpec, Catalog # ENZ-082) (human, UniProt P10515 87-647, limits assumed).
T2 construct: also called DLAT antigen; Dihydrolipoamide Acetyltransferase
T2 sequence (looked up): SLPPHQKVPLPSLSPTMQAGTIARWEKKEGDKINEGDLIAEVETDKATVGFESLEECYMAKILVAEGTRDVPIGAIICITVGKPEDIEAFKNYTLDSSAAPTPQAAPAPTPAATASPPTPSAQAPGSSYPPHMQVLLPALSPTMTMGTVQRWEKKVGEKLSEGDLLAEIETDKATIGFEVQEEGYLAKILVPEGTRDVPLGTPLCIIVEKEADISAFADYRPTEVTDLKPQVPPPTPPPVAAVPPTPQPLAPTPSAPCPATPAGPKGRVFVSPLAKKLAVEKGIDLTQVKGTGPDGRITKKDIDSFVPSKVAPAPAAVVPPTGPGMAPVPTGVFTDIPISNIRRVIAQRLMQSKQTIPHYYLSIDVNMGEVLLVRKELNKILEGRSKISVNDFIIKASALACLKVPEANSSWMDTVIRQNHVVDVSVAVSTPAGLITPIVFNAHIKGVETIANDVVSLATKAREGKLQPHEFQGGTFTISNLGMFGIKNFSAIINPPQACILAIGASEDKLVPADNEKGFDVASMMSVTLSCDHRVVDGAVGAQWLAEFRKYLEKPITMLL
Kind of test: BIAcore, AntiFc_TPP992_DLAT, kinetics from single concentration curve (12.5nM DLAT).

Test [5] concerns the target T1, Programmed Death 1 (PD-1) Fc chimera …. Description: BLI (Octet Red), TPP-992 loaded on anti-human IgG Fc tips, DLAT 10 µg/mL bound first, then PD-1 Fc 12.5 µg/mL. The procedure:
as §1

The target of test [6] is T2, Human DLAT recombinant protein …. Kind of test: BIAcore kinetics, antibody captured on anti-mouse surface, DLAT (Prospec) as analyte.

T1 sequence (Q15116 25-167, change not shown): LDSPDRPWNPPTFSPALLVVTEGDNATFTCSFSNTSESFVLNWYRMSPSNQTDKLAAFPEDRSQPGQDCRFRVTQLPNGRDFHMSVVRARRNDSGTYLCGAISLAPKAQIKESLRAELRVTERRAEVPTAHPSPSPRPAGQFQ

B1: TPP-986, human IgG2/4 PD5 antibody, N-terminus PD-L1 HC (antibody)
heavy: FTVTVPKDLYVVEYGSNMTIECKFPVEKQLDLAALIVYWEMEDKNIIQFVHGEEDLKVQHSSYRQRARLLKDQLSLGNAALQITDVKLQDAGVYRCMISYGGADYKRITVKVNAGGSSRSSSSGGGGSGGGGQLQLQESGPGLVKPSETLSLTCIVSGGSISRNSYYWGWIRQPPGKGLEWIGSIVYSGSTYHQPSLKSRVTIFLDTSKNQFFLKLTSVTAADTAVYYCARGTRATTWPPPIGYWGQGTLVTVSSASTKGPSVFPLAPCSRSTSESTAALGCLVKDYFPEPVTVSWNSGALTSGVHTFPAVLQSSGLYSLSSVVTVPSSNFGTQTYTCNVDHKPSNTKVDKTVERKCCVECPPCPAPPVAGPSVFLFPPKPKDTLMISRTPEVTCVVVDVSQEDPEVQFNWYVDGVEVHNAKTKPREEQFNSTYRVVSVLTVLHQDWLNGKEYKCKVSNKGLPSSIEKTISKAKGQPREPQVYTLPPSQEEMTKNQVSLTCLVKGFYPSDIAVEWESNGQPENNYKTTPPVLDSDGSFFLYSRLTVDKSRWQEGNVFSCSVMHEALHNHYTQKSLSLSLGK
light: QSVLTQPPSVSAAPGQKVTVSCFGSSSNIGNYFASWYQQLPGAAPRLLIYGNNERPSGIPDRFSGSKSGTSATLVITGLQTGDEAAYYCATWDSSLSAVVFGGGTKLTVLGQPKANPTVTLFPPSSEELQANKATLVCLISDFYPGAVTVAWKADGSPVKAGVETTKPSKQSNNKYAASSYLSLTPEQWKSHRSYSCQVTHEGSTVEKTVAPTECS
notes: Antibody fused with the human PD-L1 variable-like domain
As for B1, in test [1], the binding result is reported as “binds”.

B2: TPP-994 (PD2 with PD-L1 fused to the C-terminus of the heavy chain) (Fab)
heavy: EVQLVESGGGLVKPGGSLRLSCAASGFTFGSYSMTWVRQAPGKGLEWVSFISTVSTYIYYPDSVKGRFTISRDNAKNSLYLQMNSLRAEDTAVYYCARVSGRGSAARDGEKGTYYYYMDVWGKGTTVTVSSASTKGPSVFPLAPSSKSTSGGTAALGCLVKDYFPEPVTVSWNSGALTSGVHTFPAVLQSSGLYSLSSVVTVPSSSLGTQTYICNVNHKPSNTKVDKRVEPKSCGGSSRSSSSGGGGSGGGGFTVTVPKDLYVVEYGSNMTIECKFPVEKQLDLAALIVYWEMEDKNIIQFVHGEEDLKVQHSSYRQRARLLKDQLSLGNAALQITDVKLQDAGVYRCMISYGGADYKRITVKVNA
light: SSELTQDPAVSVALGQTVTITCQGDSLRSYYASWYQQKPGQAPVLVIFGKNNRPSGIPDRFSGSRSGNTASLTITGAQAEDEADYFCDSRDSSANHWVFGGGTKLTVLQPKAAPSVTLFPPSSEELQANKATLVCLISDFYPGAVTVAWKADSSPVKAGVETTTPSKQSNNKYAASSYLSLTPEQWKSHKSYSCQVTHEGSTVEKTVAPTECS
notes: Fab fusion with the human PD-L1 variable-like domain
Regarding B2, the binding result in test [2] is recorded as “binds”.

B3: TPP-995 (PD2 with PD-L1 fused to the N-terminus of the heavy chain) (Fab)
heavy: FTVTVPKDLYVVEYGSNMTIECKFPVEKQLDLAALIVYWEMEDKNIIQFVHGEEDLKVQHSSYRQRARLLKDQLSLGNAALQITDVKLQDAGVYRCMISYGGADYKRITVKVNAGGSSRSSSSGGGGSGGGGEVQLVESGGGLVKPGGSLRLSCAASGFTFGSYSMTWVRQAPGKGLEWVSFISTVSTYIYYPDSVKGRFTISRDNAKNSLYLQMNSLRAEDTAVYYCARVSGRGSAARDGEKGTYYYYMDVWGKGTTVTVSSASTKGPSVFPLAPSSKSTSGGTAALGCLVKDYFPEPVTVSWNSGALTSGVHTFPAVLQSSGLYSLSSVVTVPSSSLGTQTYICNVNHKPSNTKVDKRVEPKSC
light: SSELTQDPAVSVALGQTVTITCQGDSLRSYYASWYQQKPGQAPVLVIFGKNNRPSGIPDRFSGSRSGNTASLTITGAQAEDEADYFCDSRDSSANHWVFGGGTKLTVLQPKAAPSVTLFPPSSEELQANKATLVCLISDFYPGAVTVAWKADSSPVKAGVETTTPSKQSNNKYAASSYLSLTPEQWKSHKSYSCQVTHEGSTVEKTVAPTECS
notes: as for B2
B3: the binding result in test [3] is given as “binds”.

B4: TPP-992, human IgG2/4 PD5 antibody, N-terminus PD-L1 LC (antibody)
heavy: QLQLQESGPGLVKPSETLSLTCIVSGGSISRNSYYWGWIRQPPGKGLEWIGSIVYSGSTYHQPSLKSRVTIFLDTSKNQFFLKLTSVTAADTAVYYCARGTRATTWPPPIGYWGQGTLVTVSSASTKGPSVFPLAPCSRSTSESTAALGCLVKDYFPEPVTVSWNSGALTSGVHTFPAVLQSSGLYSLSSVVTVPSSNFGTQTYTCNVDHKPSNTKVDKTVERKCCVECPPCPAPPVAGPSVFLFPPKPKDTLMISRTPEVTCVVVDVSQEDPEVQFNWYVDGVEVHNAKTKPREEQFNSTYRVVSVLTVLHQDWLNGKEYKCKVSNKGLPSSIEKTISKAKGQPREPQVYTLPPSQEEMTKNQVSLTCLVKGFYPSDIAVEWESNGQPENNYKTTPPVLDSDGSFFLYSRLTVDKSRWQEGNVFSCSVMHEALHNHYTQKSLSLSLGK
light: FTVTVPKDLYVVEYGSNMTIECKFPVEKQLDLAALIVYWEMEDKNIIQFVHGEEDLKVQHSSYRQRARLLKDQLSLGNAALQITDVKLQDAGVYRCMISYGGADYKRITVKVNAGGSSRSSSSGGGGSGGGGQSVLTQPPSVSAAPGQKVTVSCFGSSSNIGNYFASWYQQLPGAAPRLLIYGNNERPSGIPDRFSGSKSGTSATLVITGLQTGDEAAYYCATWDSSLSAVVFGGGTKLTVLGQPKANPTVTLFPPSSEELQANKATLVCLISDFYPGAVTVAWKADGSPVKAGVETTKPSKQSNNKYAASSYLSLTPEQWKSHRSYSCQVTHEGSTVEKTVAPTECS
notes: as for B1
As for B4, in test [4], the Kd came out at 0.184 nM, the koff worked out at 0.000238 s⁻¹ and the kon was determined as 1.29e+06 M⁻¹ s⁻¹. The binding result in test [5] is “binds”.

B5: TPP-1005 (mIgG1 DWZ Ab) (antibody, V domains shown)
VH: EVQLLESGGDVVQPGGSLRLSCVASGFTLTNYVTAWVRRRPGKGLEWISGMTHGAVATYYSDSVRGRFSSSRDTSRSTLYLQMNDLTVEDTAIYYCAKSLHRSGTSLSYWGQGTLVTVSS
VL: QSVLTQPPSASGTPGQNINISCSGTTSNIGGSNVDWYQHVPGTAPKLFIHSNNQRPSGVPARFSASKSGTSASLAISGLQSEDEADYYCATWDVRLLAYVFGSATEVTVLR
notes: also called murine IgG1 DWZ
For B5, in test [6], the Kd amounted to 1.72 nM, the koff was 0.000149 s⁻¹ and the kon was found to be 86300 M⁻¹ s⁻¹.

B6: TPP-1004 (mIgG1 PD5 Ab) (antibody)
heavy: QLQLQESGPGLVKPSETLSLTCIVSGGSISRNSYYWGWIRQPPGKGLEWIGSIVYSGSTYHQPSLKSRVTIFLDTSKNQFFLKLTSVTAADTAVYYCARGTRATTWPPPIGYWGQGTLVTVSSAKTTPPSVYPLAPGSAAQTNSMVTLGCLVKGYFPEPVTVTWNSGSLSSGVHTFPAVLQSDLYTLSSSVTVPSSTWPSQTVTCNVAHPASSTKVDKKIVPRDCGCKPCICTVPEVSSVFIFPPKPKDVLTITLTPKVTCVVVDISKDDPEVQFSWFVDDVEVHTAQTKPREEQINSTFRSVSELPIMHQDWLNGKEFKCRVNSAAFPAPIEKTISKTKGRPKAPQVYTIPPPKEQMAKDKVSLTCMITNFFPEDITVEWQWNGQPAENYKNTQPIMDTDGSYFVYSKLNVQKSNWEAGNTFTCSVLHEGLHNHHTEKSLSHSPGK
light: QSVLTQPPSVSAAPGQKVTVSCFGSSSNIGNYFASWYQQLPGAAPRLLIYGNNERPSGIPDRFSGSKSGTSATLVITGLQTGDEAAYYCATWDSSLSAVVFGGGTKLTVLGQPRADAAPTVSIFPPSSEQLTSGGASVVCFLNNFYPKDINVKWKIDGSERQNGVLNSWTDQDSKDSTYSMSSTLTLTKDEYERHNSYTCEATHKTSTSPIVKSFNRNEC
notes: also called murine IgG1 PD5; Mouse PD5
For the molecule B6, in test [6], the Kd was 0.526 nM, the koff worked out at 1.94e-05 s⁻¹ and the kon came to 36900 M⁻¹ s⁻¹.

B7: TPP-1003 (mIgG1 PD2 Ab) (antibody, V domains shown)
VH: EVQLVESGGGLVKPGGSLRLSCAASGFTFGSYSMTWVRQAPGKGLEWVSFISTVSTYIYYPDSVKGRFTISRDNAKNSLYLQMNSLRAEDTAVYYCARVSGRGSAARDGEKGTYYYYMDVWGKGTTVTVSS
VL: SSELTQDPAVSVALGQTVTITCQGDSLRSYYASWYQQKPGQAPVLVIFGKNNRPSGIPDRFSGSRSGNTASLTITGAQAEDEADYFCDSRDSSANHWVFGGGTKLTVLQ
notes: also called mouse IgG1 chimera anti-DLAT antibody PD2
For B7, in test [6], the Kd came to 0.242 nM, the koff was 4.68e-05 s⁻¹ and the kon was found to be 193000 M⁻¹ s⁻¹.
